In patent publication US20260151494A1 (ARO BIOTHERAPEUTICS, published 2026):

Key:
[1] = target: T1, human CD71 extracellular domain (human, UniProt P02786 89-760); test: primary ELISA screen, RLU on human CD71-ECD over RLU on HSA
T1 construct: also called hCD71; human CD71-ECD

[2] = target: T2, apical domain of CD71 (Screen 3: 'cynomolgus apical domain of human CD71') (cynomolgus (as 'cynomolgus apical …)); test: primary ELISA screen, apical domain of CD71
T2 construct: domain: apical domain; Species is told ambiguously

[3] = target: T1, human CD71 extracellular domain; test: primary ELISA screen, human CD71-ECD
[4] = target: T2, apical domain of CD71 (Screen 3: …); test: primary ELISA screen, RLU on apical domain over RLU on HSA
[5] = target: T3, human CD71 extracellular domain (CD71-ECD) (human, UniProt P02786 89-760); test: capture ELISA, 20 nM antigen on Neutravidin plate, FN3 titrated 250 to 0.3 nM
T3 construct: It was captured on a Neutravidin plate; also called hCD71; transferrin receptor 1 ECD
T3 sequence (P02786 89-760): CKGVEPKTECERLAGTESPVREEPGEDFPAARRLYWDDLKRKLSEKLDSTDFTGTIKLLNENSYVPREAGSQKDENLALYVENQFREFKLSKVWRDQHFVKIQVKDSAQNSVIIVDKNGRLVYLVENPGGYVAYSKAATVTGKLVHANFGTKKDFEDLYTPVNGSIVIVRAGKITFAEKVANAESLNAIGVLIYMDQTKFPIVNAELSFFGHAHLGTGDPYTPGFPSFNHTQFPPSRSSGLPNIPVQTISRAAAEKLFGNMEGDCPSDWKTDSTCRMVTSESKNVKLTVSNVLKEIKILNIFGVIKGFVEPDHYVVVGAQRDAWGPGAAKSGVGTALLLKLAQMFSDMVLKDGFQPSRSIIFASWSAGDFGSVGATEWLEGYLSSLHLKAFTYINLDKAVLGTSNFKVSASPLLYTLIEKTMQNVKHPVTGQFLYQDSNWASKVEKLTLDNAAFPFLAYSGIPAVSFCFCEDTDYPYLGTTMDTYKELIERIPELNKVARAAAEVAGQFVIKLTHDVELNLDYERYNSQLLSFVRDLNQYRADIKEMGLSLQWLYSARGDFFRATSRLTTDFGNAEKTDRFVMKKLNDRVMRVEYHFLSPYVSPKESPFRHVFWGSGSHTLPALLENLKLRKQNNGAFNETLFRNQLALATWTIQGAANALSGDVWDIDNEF
Protocol: (§1) Select CD71-binding FN3 domains identified in Example 4 above were chosen to determine their binding to both human and cynomolgus monkey CD71 extracellular domain (CD71-ECD). Capture ELISA using CD71 binding to FN3 domains was performed, with the FN3 domains being titrated from 250 nM to 0.3 nM. 20 nM of antigen was incubated on a Neutravidin® plate for 1 hour at room temperature. The FN3 domains were incubated for 16 hours at room temperature.

[6] = target: T4, cynomolgus monkey CD71 extracellular domain (CD71-ECD) (cynomolgus monkey, UniProt H9EXL1 89-760 (rhesus entry)); test: as above
T4 construct: extracellular domain; It was captured on a Neutravidin plate; also called cynomolgus CD71-ECD
T4 sequence (chain, as listed by the source): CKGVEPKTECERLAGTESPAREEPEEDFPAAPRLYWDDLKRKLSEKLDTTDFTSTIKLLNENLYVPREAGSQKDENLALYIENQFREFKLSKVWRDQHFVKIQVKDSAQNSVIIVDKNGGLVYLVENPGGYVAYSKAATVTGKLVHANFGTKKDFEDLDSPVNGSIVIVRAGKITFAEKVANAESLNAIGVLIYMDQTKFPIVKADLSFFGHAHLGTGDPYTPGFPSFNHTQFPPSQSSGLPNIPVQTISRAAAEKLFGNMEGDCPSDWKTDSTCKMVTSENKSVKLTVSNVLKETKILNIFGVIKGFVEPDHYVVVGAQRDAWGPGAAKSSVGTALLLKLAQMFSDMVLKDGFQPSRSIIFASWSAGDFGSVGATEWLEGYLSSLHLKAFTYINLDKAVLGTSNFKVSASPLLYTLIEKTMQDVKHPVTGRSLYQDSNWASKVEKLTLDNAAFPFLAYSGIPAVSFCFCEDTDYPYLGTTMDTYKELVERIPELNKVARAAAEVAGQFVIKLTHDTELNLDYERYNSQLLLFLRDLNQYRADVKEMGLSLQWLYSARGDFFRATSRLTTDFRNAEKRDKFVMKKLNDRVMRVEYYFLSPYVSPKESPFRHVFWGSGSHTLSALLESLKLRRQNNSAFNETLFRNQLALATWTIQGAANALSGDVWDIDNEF
Protocol: as §1

[7] = target: T5, human CD71 on cells (SKBR3; SW620-rLuc-KRAS) (human, UniProt P02786 1-760); test: cell-based or functional assay
T5 sequence (P02786 whole entry): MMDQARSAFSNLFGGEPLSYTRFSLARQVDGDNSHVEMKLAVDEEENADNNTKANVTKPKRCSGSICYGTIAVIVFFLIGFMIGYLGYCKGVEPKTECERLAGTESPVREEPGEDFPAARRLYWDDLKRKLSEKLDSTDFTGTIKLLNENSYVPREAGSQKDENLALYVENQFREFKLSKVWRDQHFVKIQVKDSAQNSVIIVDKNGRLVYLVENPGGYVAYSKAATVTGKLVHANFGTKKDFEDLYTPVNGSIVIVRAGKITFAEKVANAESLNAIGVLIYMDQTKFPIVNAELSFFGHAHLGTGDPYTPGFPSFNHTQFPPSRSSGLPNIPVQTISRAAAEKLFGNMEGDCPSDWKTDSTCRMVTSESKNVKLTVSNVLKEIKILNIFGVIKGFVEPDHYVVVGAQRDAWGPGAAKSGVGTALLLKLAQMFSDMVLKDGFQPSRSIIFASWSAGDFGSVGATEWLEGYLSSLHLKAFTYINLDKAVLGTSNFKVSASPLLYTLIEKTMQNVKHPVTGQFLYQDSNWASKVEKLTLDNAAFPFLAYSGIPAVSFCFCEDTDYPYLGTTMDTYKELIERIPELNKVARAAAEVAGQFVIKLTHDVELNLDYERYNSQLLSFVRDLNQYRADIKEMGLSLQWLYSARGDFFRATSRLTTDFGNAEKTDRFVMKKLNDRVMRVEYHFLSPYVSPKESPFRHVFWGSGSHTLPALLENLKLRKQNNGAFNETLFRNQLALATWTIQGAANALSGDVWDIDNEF

[8] = target: T5, human CD71 on cells (SKBR3; …); test: cell-based or functional assay; remark: listed apart in the source

T1 sequence (P02786 89-760): as the sequence (P02786 89-760) above

Row | hCD71:HSA [1] | RLU [2] | RLU [3] | Apical domain:HSA [4] | EC50 [5] | EC50 [6] | CTG EC50 (CellTiter-Glo luminescent assay, SKBR3 cells, 72 h) [7] | LSA EC50 (luciferase reporter assay, SW620-rLuc-KRAS cells, 72 h) [8] | Binder
1 | 93 ratio | 5.9e+06 RLU | 5.34e+06 RLU | 103 ratio | – | – | – | – | CD71-binding FN3 domain of SEQ ID NO: 335 (designed binder, not shown: C-terminal poly-histidine tag added to each FN3 domain) MSLPAPKNLVVSRVTEDSARLSWTAPDAAFDSFFIGYLEPQPPGEAIDLYVPGSERSYDLTGLKPGTEYNVTIQGVKGGFPSLPLVATFTT
2 | 10 ratio | 5.41e+06 RLU | 4.44e+06 RLU | 13 ratio | – | – | – | – | CD71-binding FN3 domain of SEQ ID NO: 342 (designed binder, not shown: C-terminal poly-histidine tag added to each FN3 domain) MSLPAPKNLVVSRVTEDSARLSWTAPDAAFDSFFIGYLEPQPPGEAIVLTVPGSERSYDLTGLKPGTEYNVTIQGVKGGFPSEPLIANFTT
3 | 92 ratio | 5.31e+06 RLU | 5.35e+06 RLU | 92 ratio | – | – | – | – | CD71-binding FN3 domain of SEQ ID NO: 341 (designed binder, not shown: C-terminal poly-histidine tag added to each FN3 domain) MSLPAPKNLVVSRVTEDSARLSWTAPDAAFDSFFIGYLEPQPPGEAIELYVPGSERSYDLTGLKPGTEYNVTIQGVKGGFPSLPLVAIFTT
4 | 172 ratio | 5.42e+06 RLU | 5.25e+06 RLU | 178 ratio | – | – | – | – | CD71-binding FN3 domain of SEQ ID NO: 343 (designed binder, not shown: C-terminal poly-histidine tag added to each FN3 domain) MSLPAPKNLVVSRVTEDSARLSWTAPDAAFDSFFIGYLEPQPPGEAIALWVPGSERSYDLTGLKPGTEYNVTIQGVKGGFPSEPLVATFTT
5 | 307 ratio | 6.62e+06 RLU | 5.28e+06 RLU | 385 ratio | – | – | – | – | CD71-binding FN3 domain of SEQ ID NO: 337 (designed binder, not shown: C-terminal poly-histidine tag added to each FN3 domain) MSLPAPKNLVVSRVTEDSARLSWTAPDAAFDSFFIGYLEPQPPGEAIHLYVPGSERSYDLTGLKPGTEYNVTIQGVKGGFPSIPLIASFTT
6 | 106 ratio | 5.1e+06 RLU | 3e+06 RLU | 180 ratio | – | – | – | – | CD71-binding FN3 domain of SEQ ID NO: 340 (designed binder, not shown: C-terminal poly-histidine tag added to each FN3 domain) MSLPAPKNLVVSRVTEDSSRLSWTAPDAAFDSFEIGYFENLYLGEAIVLTVPGSERSYDLTGLKPGTEYWVQIGGVKGGNWSAPLSAIFTT
7 | 108 ratio | 4.59e+06 RLU | 2.55e+06 RLU | 195 ratio | – | – | – | – | CD71-binding FN3 domain of SEQ ID NO: 345 (designed binder, not shown: C-terminal poly-histidine tag added to each FN3 domain) MSLPAPKNLVVSRVTEDSAHLSWTAPDAAFDSFEIGYFENDYFGEAIVLTVPGSERSYDLTGLKPGTEYVVFIGGVKGGKWSAPLSAIFTT
8 | 36 ratio | 3.4e+06 RLU | 1.33e+06 RLU | 92 ratio | – | – | – | – | CD71-binding FN3 domain of SEQ ID NO: 344 (designed binder, not shown: C-terminal poly-histidine tag added to each FN3 domain) MSLPAPKNLFVSRVTEDSARLSWTAPDAAFDSFEIGYWENAYKGEAIVLTVPGSERSYDLTGLKPGTEYWVQIGGVKGGNWSAPLSAIFTT
9 | 303 ratio | 4.86e+06 RLU | 2.14e+06 RLU | 690 ratio | – | – | – | – | CD71-binding FN3 domain of SEQ ID NO: 339 (designed binder, not shown: C-terminal poly-histidine tag added to each FN3 domain) MSLPAPKNLVVSRVTEDSARLSWTAPDAAFDSFEIGYWEMSYYGEAIVLTVPGSERSYDLTGLKPGTEYGVSIGGVKGGRWSLPLSAIFTT
10 | 57 ratio | 5.02e+06 RLU | 2.29e+06 RLU | 125 ratio | – | – | – | – | CD71-binding FN3 domain of SEQ ID NO: 338 (designed binder, not shown: C-terminal poly-histidine tag added to each FN3 domain) MSLPAPKNLVVSRVTEDSARLSWTAPDAAFDSFEIGYFENLYLGEAIVLTVPGSERSYDLTGLKPGTEYCVYICGVKGGRDSMPLSAIFTT
11 | – | – | – | – | 3.9 nM | 10.6 nM | 3 nM | – | CD71-binding FN3 domain of SEQ ID NO: 496 (designed binder, Tencon-based FN3 domain) MLPAPKNLVVSRVTEDSARLSWTAPDAAFDSFFIGYLEPQPPGEAIILWVPGSERSYDLTGLKPGTEYNVTIQGVKGGFPSVPLIAQFTT
12 | – | – | – | – | – | – | – | 0.24 nM | CD71-binding FN3 domain of SEQ ID NO: 400 conjugated to KRAS2 siRNA (designed binder, conjugated to KRAS2 tool siRNA; site and linker not stated) MLPAPKNLVVSRVTEDSARLSWTAPDAAFDSFFIGYLEPQPPGEAIHLFVPGSERSYDLTGLKPGTEYNVTIQGVKGGFPSGPLHATFTT
13 | – | – | – | – | – | – | – | 0.15 nM | CD71-binding FN3 domain of SEQ ID NO: 472 conjugated to KRAS2 siRNA (designed binder, conjugated to KRAS2 tool siRNA; site and linker not stated) MLPAPKNLVVSRVTEDSARLSWTAPDAAFDSFFIGYLEPQPPGEAIELYVPGSERSYDLTGLKPGTEYNVTIQGVKGGFPSLPLVATFTT
14 | – | – | – | – | – | – | – | 0.22 nM | CD71-binding FN3 domain of SEQ ID NO: 496 conjugated to KRAS2 siRNA (designed binder, conjugated to KRAS2 tool siRNA; site and linker not stated) MLPAPKNLVVSRVTEDSARLSWTAPDAAFDSFFIGYLEPQPPGEAIILWVPGSERSYDLTGLKPGTEYNVTIQGVKGGFPSVPLIAQFTT
15 | – | – | – | – | – | – | – | 0.53 nM | CD71-binding FN3 domain of SEQ ID NO: 447 conjugated to KRAS2 siRNA (designed binder, conjugated to KRAS2 tool siRNA; site and linker not stated) MLPAPKNLVVSRVTEDSARLSWTAPDAAFDSFFIGYLEPQPPGEAIYLYVPGSERSYDLTGLKPGTEYNVTIQGVKGGFPSYPLTAQFTT
16 | – | – | – | – | – | – | – | 0.31 nM | CD71-binding FN3 domain of SEQ ID NO: 476 conjugated to KRAS2 siRNA (designed binder, conjugated to KRAS2 tool siRNA; site and linker not stated) MLPAPKNLVVSRVTEDSARLSWTAPDAAFDSFFIGYLEPQPPGEAIHLQVPGSERSYDLTGLKPGTEYNVTIQGVKGGFPSIPLIAVFTT
17 | – | – | – | – | – | – | – | 0.15 nM | CD71-binding FN3 domain of SEQ ID NO: 373 conjugated to KRAS2 siRNA (designed binder, conjugated to KRAS2 tool siRNA; site and linker not stated) MLPAPKNLVVSRVTEDSARLSWTAPDAAFDSFFIGYLEPQPPGEAISLFVPGSERSYDLTGLKPGTEYNVTIQGVKGGFPSDPLVASFTT
18 | – | – | – | – | – | – | – | 0.21 nM | CD71-binding FN3 domain of SEQ ID NO: 478 conjugated to KRAS2 siRNA (designed binder, conjugated to KRAS2 tool siRNA; site and linker not stated) MLPAPKNLVVSRVTEDSARLSWTAPDAAFDSFFIGYLEPQPPGEAIHLYVPGSERSYDLTGLKPGTEYNVTIQGVKGGFPSVPLIAKFTT
19 | – | – | – | – | 2.2 nM | 10.6 nM | 8.4 nM | – | CD71-binding FN3 domain of SEQ ID NO: 516 (designed binder, Tencon-based FN3 domain) MLPAPKNLVVSRVTEDSARLSWTAPDAAFDSFFIGYLEPQPPGEAISLWVPGSERSYDLTGLKPGTEYNVTIQGVKGGFPSSPLVAYFTT
20 | – | – | – | – | 2.3 nM | 2.7 nM | 7 nM | – | CD71-binding FN3 domain of SEQ ID NO: 529 (designed binder, Tencon-based FN3 domain) MLPAPKNLVVSRVTEDSARLSWTAPDAAFDSFFIGYLEPQPPGEAIDLYVPGSERSYDLTGLKPGTEYNVTIQGVKGGFPSLPLQAHFTT
21 | – | – | – | – | 5.5 nM | 14.2 nM | 1.5 nM | – | CD71-binding FN3 domain of SEQ ID NO: 508 (designed binder, Tencon-based FN3 domain) MLPAPKNLVVSRVTEDSARLSWTAPDAAFDSFFIGYLEPQPPGEAITLSVPGSERSYDLTGLKPGTEYNVTIQGVKGGFPSEPLIAIFTT
22 | 188 ratio | 5.45e+06 RLU | 2.7e+06 RLU | 378 ratio | – | – | – | – | CD71-binding FN3 domain of SEQ ID NO: 334 (designed binder, not shown: C-terminal poly-histidine tag added to each FN3 domain) MSLPAPKNLVVSRVTEDSARLSWTAPDAAFDSFEIAYQELSLWGEAIVLTVPGSERSYDLTGLKPGTEYWVQIGGVKGGIWSSPLVASFTT
23 | 68 ratio | 4.31e+06 RLU | 1.15e+06 RLU | 256 ratio | – | – | – | – | CD71-binding FN3 domain of SEQ ID NO: 336 (designed binder, not shown: C-terminal poly-histidine tag added to each FN3 domain) MSLPAPKNLVVSRVTEDSARLSWTAPDAAFDSFNIMYHEHYDNGEAIVLTVPGSERSYDLTGLKPGTEYSVVINGVKGGPHSAPLSAIFTT
